The values that follow come from patent publication US20230151437A1, “USE OF PROTEIN ASSEMBLIES TO RECORD CELLULAR EVENTS” (President and Fellows of Harvard College, priority 2021, published 2023).

For series [1], the system named is cultured neurons. The series is described as follows: Patch clamp electrophysiology of neurons with iPAK4 assemblies. The class given is cell-based, rat. The conditions noted are these: N=11, mean±s.e.m. Here is the method: FIGS. 5A-5H show protein ticker tape recordings of cFos activation in neurons. FIG. 5A provides an image of a cultured neuron expressing lentiviral CMV::iPAK4 (90%) and CMV::eGFP-iPAK4 (10%). Scale bar 50 μm. […] Spikes were evoked by a current injection of 100 pA. […] Error bars show mean±s.e.m. Two-sided Student's t-test was employed for data comparison. […] Scale bar 5 μm.
Whether iPAK4 assemblies affected neuronal electrophysiology was then tested. Neurons infected with lentivirus encoding CMV::iPAK4 (90%) and CMV::eGFP-iPAK4 (10%) grew single straight assemblies (FIG. 5A). Patch clamp recordings were used to compare the electrophysiology of neurons with and without assemblies. Although in many cases the assembly length was several times longer than the soma diameter, neurons with assemblies spiked normally (FIG. 5B), and had membrane resistance, membrane capacitance, resting potential, and rheobase that were statistically indistinguishable from neurons without assemblies (N=11 neurons with assemblies, N=12 without, two-sided Student's t-test, FIG. 5C).
Patch clamp electrophysiology: Whole-cell recordings were performed in extracellular buffer containing (in mM): 125 NaCl, 2.5 KCl, 15 HEPES, 25 D-glucose, 1 MgCl2, and 2 CaCl2 (pH=7.2-7.3 with NaOH). Assembly-forming and non-forming (control) neurons were visualized with a home-built inverted epifluorescence microscope. Experiments were made at 23° C. under ambient atmosphere. The whole-cell internal solution comprised (in mM): 8 NaCl, 130 KMeSO3, 10 HEPES, 5 KCl, 0.5 EGTA, 4 Mg-ATP, and 0.3 Na3-GTP. The pH was adjusted to 7.2-7.3 with KOH and osmolarity was set to 290-295 mOsm/L. Borosilicate glass pipettes were used with a resistance of 3-5 MΩ (1.5 mm OD). Signals were acquired and filtered at 4 kHz with the internal Bessel filter using a Multiclamp 700B (Molecular Devices) and digitized with PCIe-6323 (National Instruments) at 10 kHz. Following the whole-cell configuration, membrane capacitance (Cm), and membrane resistance (Rm) were estimated under voltage-clamp mode. Measurements of resting membrane potential (Vrest), rheobase, and spike rates were made under current-clamp mode. Rheobase was defined as the minimum current step (in 500 ms duration) required for any spike onset. Whole-cell recordings were monitored and analyzed using a custom code written in LabView and Matlab.
(In general: Patch clamp records ionic current or voltage across a cell membrane.)

For series [2], the system named is HEK cells. Briefly: HT dye switch fluorescence profiles of HT-iPAK4 assemblies in HEK cells. The class given is cell-based. The conditions noted are these: dishes fixed at 8 h vs 30 h (22 h, one day). Here is the method: To test whether assemblies could encode HT dye timestamps, HEK cells growing HT-iPAK4 assemblies were successively washed with different colors of HT-ligand dyes at Δt=2 h intervals in the sequence JF503, JF669, JFX608, JF503, JF669 (FIG. 2A; see FIGS. 11A-11B for dye structures, photophysical properties, and synthesis of JFX608). The cells were then fixed and imaged with spectrally resolved confocal microscopy. Clear progression of colored bands matching the sequence of dye additions was observed.
To test the limits of how fast dye transitions could be encoded, assemblies were made with seven dye switches at Δt=1 h. At this short interval, peaks were still visible, but their amplitude was suppressed relative to the parts of the assembly with no dye switches, indicating incomplete transitions in dye labeling (FIG. 12E).
A protein ticker tape may stably store its information for extended times. […] The fluorescence profiles for the section of the assemblies that grew concurrently (from t=0 to 8 h) were then compared. […]
Image processing and data analysis: Images of individual assemblies were rotated to align the long axis to the x-axis. Fluorescence profiles were then calculated as the median fluorescence in each spectral channel across the width of the assembly. […] Dye transitions were identified as local maxima in the second derivative of the dye fluorescence as a function of position. […]

The test system of series [3] is cultured neurons. Briefly: Live-dead assay in cultured neurons expressing iPAK4 assemblies. The conditions noted are these: assemblies grown for 6 days. The class given is cell-based, rat. The protocol: Related to FIG. 5. […] Staining of live cells (calcein-AM) and dead cells (EthD-1) is shown. The assay was performed at day 6 after lentiviral infection. Many iPAK4 assemblies are present in FIG. 22A (assemblies share the channel with calcein-AM). Scale bars: 200 μm. FIG. 22C provides a statistical comparison of the live-cell and dead-cell populations, and the dead/live cell ratio in iPAK4+ and iPAK4− groups (N=5 fields of view per group).
To test for effects of iPAK4 assemblies on neuronal survival, iPAK4 (95%) and HT-iPAK4 (5%) were lentivirally expressed in cultured neurons, the assemblies were allowed to grow for 6 days, and then a live-dead assay was performed (FIGS. 22A-22C). […] The iPAK4-expressing neurons had typical soma and neurite structures, similar to those observed in healthy neurons.
Primary neuron culture: Before the plating of primary hippocampal neurons, 14 mm glass-bottom dishes were first incubated with 40 μg/ml poly-D-lysine (PDL) in PBS at room temperature for 1 h and subsequentially with 20 μg/ml laminin (Fisher Scientific; 23-017-015) at 4° C. overnight, followed by thorough wash with PBS. […] Neuronal health was monitored daily from DIV1 to DIV7. […]

Series [4] concerns HEK cells. The series is described as follows: Live-dead assay in HEK cells expressing iPAK4 assemblies. The class given is cell-based. The conditions noted are these: n=24 fields of view. From the text:
FIGS. 9A-9C show a live-dead assay to assess the effect of iPAK4 assemblies on cell health. Related to FIG. 1A, FIG. 9A provides images of HEK293T cells expressing CMV::iPAK4 (95%) and CMV::HT-iPAK4 (5%). Many iPAK4 assemblies can be identified in a magnified view. […] Live cells (calcein-AM), dead cells (EthD-1), and HaloTag-iPAK4 stained with JFX608 are shown. FIG. 9C provides a statistical comparison of the dead cell population in iPAK4+ and iPAK4− groups. Each point represents one field of view. Two dishes per condition were investigated. […] The statistical comparison was performed by student's t-test. Lower and upper bounds of the box plot: 25th and 75th percentile; lower and upper whiskers: minimum and maximum; squares: mean; center lines: median.
It was then determined whether the iPAK4 assemblies affect cell survival, as the assemblies often grew longer than the cell diameters (FIG. 6A).

B1: iPAK4: fusion of the catalytic domain of the Pak4 kinase and the 38 amino acid iBox domain of its inhibitor Inka1 (SEQ ID NO: 1) (protein)
chain: MDYKDDDDKSGSEAEDWTAALLNRGRSRQPLVLGDNCFADLVHNWMELPEEFPAAPAVPGPPGPRSPQREPQRVSHEQFRAALQLVVDPGDPRSYLDNFIKIGEGSTGIVCIATVRSSGKLVAVKKMDLRKQQRRELLFNEVVIMRDYQHENVVEMYNSYLVGDELWVVMEFLEGGALTDIVTHTRMNEEQIAAVCLAVLQALSVLHAQGVIHRDIKSDSILLTHDGRVKLSDFGFCAQVSKEVPRRKSLVGTPYWMAPELISRLPYGPEVDIWSLGIMVIEMVDGEPPYFNEPPLKAMKMIRDNLPPRLKNLHKVSPSLKGFLDRLLVRDPAQRATAAELLKHPFLAKAGPPASIVPLMRQNRTR
For B1, in the series on cultured neurons [1], the membrane capacitance is listed as 63±6 pF, the membrane resistance was 404±73 MΩ, the resting potential is −61.2±1.2 mV and the rheobase turned out to be 89±12 pA. In the series with HEK cells [2], the “monomer exchange in the assembly” value is reported as “negligible”. The “fraction of dead cells vs dishes not infected with any lentivirus” value in the series on cultured neurons [3] is recorded as “no significant difference”. In the series on HEK cells [4], the dead cells amounted to 0.267±0.139%.
